Data on 47 sequences can be found in the NTF2 design screens of Basanta et al. (2020).

The nature of the series: protease stability score; higher = more stable; yeast display proteolysis, trypsin and chymotrypsin.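 Also: relative to predicted unfolded state with 0 unfolded-like and 1 meaning tenfold more protease.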
Take “DEEEKIARELSRLLAEIIETGDEDILLRMVDPHARFIINGKTIIGRETMWELWRRHVEKLGVSRIISRLRRIHVIDGRVHVHIEETFNGRTQEVRVDYMKIDGVWLIHEISIE”: the protease stability score amounted to 1.35. For the sequence “DEEEKIIEHVLRLLAEALSTGDEDTLDKLVDPNARVMIDGVDIHGMESMTEWLKHLRIERVHVELRDYREFNGKIHVDGVLHVDRRIGDKREHVSSKTTFIFTKVDGRWKVESIKIK”, the protease stability score amounted to 2.42.

In turn, “DEEEKILEEFLEIWIEAVATGDEEVLEHLMDPNTRVHILVGDKTLDVHGMEFFKRHIKILGADHIEWRIRHKEVINGRIHTRGELILRQGDKERRIDVEIILVVVNGRLKNSEVRER” came in with a protease stability score of 1.43.

In turn, “DEEEKILHDALEELKREFETGDEELWQRLADPHTRVEVGDKEYHGREEFVKMMSDFVRHLRWEELRIRSVHAQGEKVITHIELEMNIDGRREIHNVTIIMRKINGRWHIEFMHKR” gave a protease stability score of 0.926. “DEEEKILLHLLNVILHLLKTGDEEMMTELMDPNMKIDNENHKSHGWEALKFVRDQIRIHSINIREQRVQGEFAILRVDVDVEWNGRRIRTEIELHFVFVNGRVKEVHIQVK” had a protease stability score of 1.02. The figure for “DEEEKIMYHIFEVLIKLFLTGDFDTFTKMLDPNVYWNINGQENHGRDKVREALKLWIERFKNRTFDIKITDMRVQGEKTTLHTRLHVEVDGRHLEHDTVIILIVVDGRIKTIVIHIH” is 2.51.

In turn, “DEEEKISKEATDNFIREFETGNEEDLMKNMDPNARLIQGDKHNHGRDEASRFLVELLRDLGFKHIRLTHVRIIDGRVWVHSDLHFNGVEFKQDVIFTKINGKWTLKSLTIK” gave a protease stability score of 1.13. The figure for “DEEEKIVEDAIRVWRRVLMTGDEEASRDLMDPNYKLVVGDKEYHGREEIVTYFKILVEHIRIDDFDVRHIRVQGDKIDINSEINGTIDGRHKRLEVTIHAHKFDGRWHLTEIIIH” is 0.811. For the sequence “DEEEKKAQEFLEFVMSALETGDEETLKRLMDPRVRLRFDGRDIHGREEVLRVWIEVLKRADHVRVEIRDMEFQGDKLHIHFELILHIGDKENHIEIRQNVFKVDGQWIIKEHEIR”, the protease stability score amounted to 2.22. Regarding “DEEEKKFHELYKHLVKSLITGDEHELYRLADPNMRFSVGEFHYHGRENVLERLKEFIDRFRHATIRTKHMDRQGEYIHLTLKIHQGDKTHDMEIIAWKFDGRWFLHMIYIE”, the protease stability score worked out at 0.959. In turn, “DEEEKKWKDMVHLWFHWHVTGDFEALYENFDPNARLEQTIDGKRIEVHGREVVKEFFHRLMEELGVDHIRIERRQIQGEKVHIRGTSIFNGKERDVHIDLVVIDGRFRSARIIFN” registered a protease stability score of 1.39. Sequence “DEEEKLARHWMEVWHHAEHTGDFEEFNRLLDPHTRIEINFDGQRVELHGRHEYERFFRELGMEIRRIRLRDLHVVDGKWHIDGERDGEYDGKRIDSQIIIIYRVIDGRVKEIRKDDR” came in with a protease stability score of 0.816. Sequence “DEEEKLARKIVEDWVRAMTTGDEDDLRRLADPNVRHDINGVELHGMDEWLRVLLERGYEIRIQFRHIRVYDGRVEIDIDLEIRIGDKHHHHHVHLIFEKIDGRWRMKSEKTD” came in with a protease stability score of 1.9. Take “DEEEKLATIVMELIEETWETGDEDLFEQLADPNVRVEIGDKVYIGREIALEWFVREIRKRGAELKHTTTHNLDVQGDKVNNDMKVNGNINGRVVIFTTHLDVRKINGKWFLRSISFK”: the protease stability score was 1.29. The figure for “DEEEKLDREIEKTMKETIETGDEHLLSELIDPHARLVFNGKDFHGMEEATRFWYELVTRFKNLTFVPKDVKVFDGRLIMHGINLVNGVERRLTIVVEKINGRWVIRSIHIK” is 1; for “DEEEKLEEDLARFWVTLLKTGDEEVIRHLADPHVREDWDGVHIHGREHVAKYLSQIKNVTWEIKEVRIYNGRTEIDARHHVNGRDEHVRIHIEVFNGKVRRLRFEKR” it is 1.5.

“DEEEKLFHDFASHFVRNFLTGNWDMIKRNADPTVQAHIGDKEIHGWDRIVDHLEERLRKIKGMRHHPRRLVFIGEKTYLDTELHFNGVHVETILIVIVVNGRLKSVEFHIE” registered a protease stability score of 0.695. “DEEEKLIRIFDKLLSRAMKTGDEHELFKLIDPHTRMVVNGRTFIGWELFSHVVRHWRIDHIDLEDFKVQGDYAHLDGRVDQTVNGVKIETRSIIINEKFNGRWNNSSVILH”: the protease stability score was determined as 0.163.

“DEEEKLLEFLVEHIATILVTGDEDRWLTLADPDVKVIIDGRTFIGWEFLEELIHQIRIHRMRIRHFSFVNGRLVFIFSIDGTIGDKRDEHDTRYEMIKIDGRWRLKRVEIR”: the protease stability score is 1.48. The figure for “DEEEKLLEKMFKDLIRDLLTGDEESFHKLADPNMRLNQGDFQIHGWEDVQRVLRWRMHEMRIHHLHIHHLHFFDGKLHIDGESDIEFNGVRQNRRVEILIKKVDGKWELKEVIIR” is 2.28; for “DEEEKLLEQLARLILHNLLTGDWKSHMNNADPDVKVTVNGVLVHGREDMSHLYRELLERIPNIQIRVDRVDIQGDKVHARLWVEFDGKERQSELHVRIVNGRIKEETYHEK” it is 0.937; for “DEEEKLMKHRWEEWVRFLKTGDFDEIHDYMDPNVRLFIGDKTFHGRDVFARLVYRMGAKHVEFDLHDEHLINGKLIFHGRVVHTQGDKFIEFEVEIIAEKVNGKWLNRHQIFR” it is 0.456.

“DEEEKLRQWIFHLWIKILETGDEKLLEELADPHVLHRFDGVHAHGRERMSSWLRELIERLGVKVHELNSIHIYGDKARINFQVHVDGQRKEMTIHMLMVDGKIKSTQLDRREH” had a protease stability score of 1.09. With “DEEEKLSQHMLKEWFEWTITGDEDTLAKMADPNVRVHIGDYHLHGRESMLKWLHDFIRDLGVERIDFHLRDRTVQGNKARLHVVENVNGKSTETEVIIDVIDGRMKLVEIRIR”, the protease stability score amounted to 0.198. The figure for “DEEEKLVEEALREFLRDLMTGDEDSLLRQIDPNARHVYNGQEFHGRKWFEEMHKRMGMELKRIEIKDSDIVNGRAISHVEVHSRIGDKRLRIETEIVTLKVNGQWLVKSLSLI” is 1.15; for “DEEEKLVRYLRELMKKAWLTGDEDYIRKLMDPDTWFIYGDKHWHGMEEVTKAFEYLLHHLRIEHSIDRHVSIIGNKVHIDGEVDVTIGEKRDRRRQEIILIIVDGRIKTIEFHER” it is 0.942.

Sequence “DEEEKLWHEVARLEFELIHTGNEETWNKLADPHTRTDINGKKLHGREDFAKWSLEFLRKVKGMTMELRSTHIQGNKIRLIIRLIVDGREVKLDLEIVIINGKLREVKMEVEDT” yielded a protease stability score of 2.56. The figure for “DEEEKMDELLIKIWLKVNETGDEDTFSKLLDPDAKVIVGDKVLHGREEIEELMRQLRVDRIHVRRHKAVNGQIHQDWELRGTVNGREIRTETRVHTIKVNGQWVIHRLKIE” is 1.49; for “DEEEKMHTKAVELTETILKTGDERIIKEMADPNTRVIFDGVDLHGMEHWTEFWRRLGFKHIEIRTTEVVDGRVIIIQHVRYNGKKHESHVYADKIDGRWLYTHVEIR” it is 0.618.

Sequence “DEEEKRAHEIVRRFLKWFLTGDEEASRKNMDPSVIMVINIGDKRIELHGMEQVSEFWHETVRRYDHIDIKLKDIEVQGDKAVTHGHLELRVGDKRFETDVQIILIYIDGRISFMSVNIV” had a protease stability score of 2.48. The figure for “DEEEKRAREQYKLMFHNLQTGDEDTLKKLMDPNVRLDINGQEHHGRENVVKFWEHFIRKLGVKHMEWKDRDVEITENHVNFHGYIIIDIDGQERRLHTIIILRKVDGKWVVESLVFK” is 2.23; for “DEEEKRERKMAEIWMKSLLTGDEDTLSRLADPNVRNVLIIDGRELNLHGRELMHESLRHLRIEHIRIDEYSIVNGVFHANTTVHGVVGDKRTTVETRIHLWIFDGKFHTIIIIIS” it is 1.03.

“DEEEKRIEEIARLIFKLWHTGDEEHFLRLADPHVRLNVDGRELHGRERVKHWLHELRHRVDHITDYKEKHKENQGEFFVQWGVLDVHVDGKNVRTRVRIEIVVIDGKINEVRIEVH” gave a protease stability score of 1.36.

Regarding “DEEEKRVIHIINLVEHALETGDEDLYKNLLDPDPIYNINGRILHGREFWLEFLHHMRESIEISHWHDVRSQGDKVTVHAKTTFLIRIGDKVDRVETEVRIIIVKINGRWLLHEIHHH”, the protease stability score amounted to 0.849.

“DEEEKRWRHMTHLFWHIEKTGNEDRLSKLADPDVRLNINGVHAHGREEVISVLREFQERYKNLTIHIKDIKVFDGVVFIDGEDHFDGVTVKSLVIIFIVNGRIKEIEHRRE” had a protease stability score of 1.62. Sequence “DEEEKSLREMMRQFVEHLETGNFEEIEKMADPNARVRIDGRDFVGREEWHKMFIHLHKHLRLEDSHIHHIDFQGNKIHIHGHIHVVVDGKREHRHFHVIIRKVNGRWTIEEMYIE” came in with a protease stability score of 1.06. The figure for “DEEEKSLRFAIKMMEELIQTGDEDLFERLLDPDTRLRVGDKTFHGREQVLKWFEEWLKRMGADHVELRLHDMRVVGDKLDLDVEYRQYVGDKDIHDRRHLIIIKVNGRWYFKEVRIL” is 1.67; for “DEEEKTFEQIVRHLIDDLVTGDWEKLRDYFDPHVRVEIGDKRIVGRETLVDELSHWRVKHVRVELHDYRVINGRIEVHGSVDFRGNIDGRELRHSYETKIIFDKINGRWTLQSHHVL” it is 1.21. The figure for “DEEEKVEDDMLHRWLQYFLTGDEEHLLELADPRVRVRINGKDDHGMNAVERFWEEYRRKFKNVRIHIHDMRYYDGVIHVDGILQINGKTLKIEFIIVIVNGRIRFITENIR” is 1.73; for “DEEEKVIKDVVDMLRKALRTGDEERIRELADPDVRIEQGDKELHGRELWLEWLKEIRTERVILHVRRVRHFNGKIINEIEVRMDVRVGEFRHESTVSTILIMEKFNGRWHIRSMIIE” it is 1.5; for “DEEEKVSRLAWELLFKTWKTGDEHEFHHMFDPDVRVDFNGRHLHGREAEEILFKQVDHIEDLHLRHIHMIDGKIQIEEDVVGHFNGQRTNVHVRFVAKKIDGRWRNKMVIVR” it is 1.2.

On to “DEEEKVVFELLRLFITAWETGDEDVLLRLADPNVRMTIGDKHYHGMEHFSHVYLLIFEELRITVKVHDIRIIGDKAYVDVEERRHQGDKSWKYRTHYEFEKIDGRWKLRRVEVK”, for which the protease stability score was 2.54. The figure for “DEEEKWFRESEKLIEELIHTGNEEEFRKLADPNMRLDFNGVEVHGRHHFFREIRHTSEKFGVDKVEVRLKDFKVFNGVAHYHGEIIFNGRTIEHEIIAEKVNGRWRLQFLIFR” is 1.61; for “DEEEKWIRHILELVLRAEKTGDEDRLSELMDPDVKLDIDGRDLHGREKVKEWIEELKHKFKNLRIIDRDIRIYGEKHNVHGELHFNGQTHSAIIILRIVDGRIKEIFVIHV” it is 1.32.

Turning to “DEEEKWMRNLTEWLLKSLTTGDFESFNRMFDPRTRMHVDGREFHGREEVERYLREFDDKLGADHRESDLEHIEVQGNKARFHTTLKFDIGDKHLRIDTHLVIVKINGQWRIRHVEVR”, the protease stability score was 0.839. With “DEEEKYIKSLAKLISHAISTGDFELFHKLVDPDVRLIVDGVDLHGWELATKWIEEIRVEDHEVRVKEVRFVDGRANSDGEVILDGEYNGREKRVERKTILVSLKVDGRWTVKSLEIK”, the protease stability score turned out to be 0.882. The sequence “DEEEKYSKEANTMSRHLVETGDEEIMSKLLDPDVRNDVDGVEFHGRELLSRILKEWRVRFESMHIEDEELQGDKVIVHGRELVRMIYDGKTFNTERKVIFIVVKINGRWFIKEVKVL” came in with a protease stability score of 0.751.
